This test has as its target T1, unlabeled Kv2.1 (human, UniProt Q14721 1-858).
T1 sequence (looked up): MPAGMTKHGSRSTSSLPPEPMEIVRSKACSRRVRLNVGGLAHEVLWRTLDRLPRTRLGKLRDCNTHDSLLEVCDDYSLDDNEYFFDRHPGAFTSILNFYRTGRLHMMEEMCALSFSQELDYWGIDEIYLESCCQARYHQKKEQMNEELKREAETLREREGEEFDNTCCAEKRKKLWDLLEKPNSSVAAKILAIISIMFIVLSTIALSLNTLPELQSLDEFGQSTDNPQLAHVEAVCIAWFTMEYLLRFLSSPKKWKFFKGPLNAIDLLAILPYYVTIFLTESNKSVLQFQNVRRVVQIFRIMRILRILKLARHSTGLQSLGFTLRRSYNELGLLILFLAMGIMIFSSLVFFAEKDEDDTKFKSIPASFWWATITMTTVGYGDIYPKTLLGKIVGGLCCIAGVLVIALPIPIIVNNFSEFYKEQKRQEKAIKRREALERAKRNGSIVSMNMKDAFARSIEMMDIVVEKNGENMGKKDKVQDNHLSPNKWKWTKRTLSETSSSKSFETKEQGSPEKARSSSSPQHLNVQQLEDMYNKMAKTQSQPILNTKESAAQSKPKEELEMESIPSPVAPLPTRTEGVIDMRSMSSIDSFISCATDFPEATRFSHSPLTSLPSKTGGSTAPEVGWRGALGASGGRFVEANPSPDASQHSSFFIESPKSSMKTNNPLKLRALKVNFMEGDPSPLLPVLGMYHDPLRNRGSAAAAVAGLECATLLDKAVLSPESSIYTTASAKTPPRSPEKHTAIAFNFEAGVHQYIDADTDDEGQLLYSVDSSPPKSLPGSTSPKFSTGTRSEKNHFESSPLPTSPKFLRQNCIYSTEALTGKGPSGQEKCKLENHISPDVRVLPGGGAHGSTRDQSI
In words: cell-based or functional assay.

B1: C-terminally YFP-labeled KCNE5 (natural protein, human, UniProt Q9UJ90 1-142, looked up)
chain: MNCSESQRLRTLLSRLLLELHHRGNASGLGAGPRPSMGMGVVPDPFVGREVTSAKGDDAYLYILLIMIFYACLAGGLILAYTRSRKLVEAKDEPSQACAEHEWAPGGALTADAEAAAGSQAEGRRQLASEGLPALAQGAERV
Take B1: the “fast component of the activation of Kv2.1/Kv6.4 heterotetramers on co-expression of (untagged) KCNE5 with Kv2.1 and Kv6.4 in HEK293 cells, between +20 mV and +70 mV (whole cell current recordings)” value is around 2 fold.

Source of the values: publication PMC4525287, “Auxiliary KCNE subunits modulate both homotetrameric Kv2.1 and heterotetrameric Kv2.1/Kv6.4 channels” (Scientific Reports, 2015).
